Sequences and labels used below:
T1: Thermoplasma acidophilum exosome subunit Rrp41 (TaciRrp41) (Thermoplasma acidophilum, UniProt Q9HIP2 1-248)
T1 construct: Exosome complex component Rrp41 of Thermoplasma acidophilum; Single subunit (pET22b) used as ligand in MST; in the crystals the chain came from the pETDuet-1 co-expression with TaciRrp42; source: E. coli BL21 (DE3), from pET22b alone or from pETDuet-1 co-expressed with TaciRrp42; purified (Ni-NTA, Superdex 200)
T1 sequence: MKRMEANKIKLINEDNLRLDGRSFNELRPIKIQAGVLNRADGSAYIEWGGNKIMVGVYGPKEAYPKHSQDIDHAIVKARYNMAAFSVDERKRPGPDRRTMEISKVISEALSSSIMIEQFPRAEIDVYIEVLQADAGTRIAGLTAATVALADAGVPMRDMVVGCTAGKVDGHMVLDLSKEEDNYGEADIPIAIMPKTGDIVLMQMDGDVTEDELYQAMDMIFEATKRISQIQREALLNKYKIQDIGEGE

T2: TaciRrp41:42 complex (Thermoplasma acidophilum exosome core, Rrp41 with truncated Rrp42) (Thermoplasma acidophilum, UniProt Q9HIP2 1-248; Q9HIP1 20-240)
T2 construct: Exosome complex component Rrp41 of Thermoplasma acidophilum; as the chain of m1; Exosome complex component Rrp42 of Thermoplasma acidophilum, truncated core domain of residues 20-240; as the chain of m2; The complex was purified on Ni-NTA and labelled with the His-tag labelling kit (RED-tris-NTA) for MST; the oligomeric state in the MST sample was not measured; also called TaciRrp41/cd-TaciRrp42; …
T2 sequence 1: T1 sequence
T2 sequence 2: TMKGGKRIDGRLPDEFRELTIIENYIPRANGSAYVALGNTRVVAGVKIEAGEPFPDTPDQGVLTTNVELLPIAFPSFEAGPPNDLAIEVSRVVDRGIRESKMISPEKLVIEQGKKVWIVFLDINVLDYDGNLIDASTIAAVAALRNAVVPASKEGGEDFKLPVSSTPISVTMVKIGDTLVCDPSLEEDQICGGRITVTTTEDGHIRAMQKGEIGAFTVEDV

B1: Thermoplasma acidophilum exosome subunit Rrp42, truncated core domain, residues 20-240 (TaciRrp42) (domain or fragment, UniProt Q9HIP1 20-240, looked up)
chain: T2 sequence 2
modifications: RED-tris-NTA fluorescent dye on the His tag (in MST)
notes: Exosome complex component Rrp42 of Thermoplasma acidophilum, truncated Rrp42 corresponding to the core domain composed of residues 20-240; Single subunit (pET28a) was the labelled target in MST; in the crystals the chain came from the pETDuet-1 co-expression; also called cd-TaciRrp42; source: E. coli BL21 (DE3), from pET28a alone or from pETDuet-1 co-expressed with TaciRrp41; purified (Ni-NTA, …)
B2: Thermoplasma acidophilum exosome subunit Rrp4 (TaciRrp4) (natural protein, UniProt Q9HIP3 1-236, looked up)
chain: MYQLGDVKKIVLPGDPIEVQGKMRNGVYRGQDNRYYSEYFGTLQVNDQFVDVVPFSGQYIPRKGDKVIGKVIEVGPSTWTVDINSPYFAMLHMNDTPWRMSSGDLKRYLNAGDYIYAKIMSVNEIKESWLTLKEPGLKKLEGGHMVLIHASRVPRVIGKGGGMVNMVKELTATRIIIGQNGLIWIDGPIEGVTMAIAAIEMIEREAHTEGLTARVESFLKELKGEKDGSQQNKADQ
notes: Exosome complex component Rrp4 of Thermoplasma acidophilum (N-terminal domain, S1 domain, KH domain); also called TaciRrp4-capping protein; source: E. coli Rosetta, from pET22b; purified (Ni-NTA, Superdex 200)

What all share (test): MST; target (TaciRrp42 or TaciRrp41:42) labelled by RED-tris-NTA His-tag kit, 50 nM; ligand in sixteen serial dilutions (TaciRrp41 550 μM to 16.6 nM; TaciRrp4 200 μM to 6.1 nM); 30 min incubation; LED power and MST power 40%; triplicate
Common to all, as to conditions: both partners purified

The target in assay [1] is B2.
Assay [2] addresses T1, Thermoplasma acidophilum exosome ….
Assay [3] deals with T2, TaciRrp41:42 complex (Thermoplasma …).

As usually defined, the Kd is the constant that tells how readily two partners part at equilibrium. A high value points to lower affinity.

With B1, the Kd worked out at 4.82 µM in assay [1] and 169 µM in assay [2].

Turning to B2, in assay [3], the Kd came to 200 µM.

Source of the values: PMC11201974, “Structural Insights into the Rrp4 Subunit from the Crystal Structure of the Thermoplasma acidophilum Exosome” (Biomolecules, 2024).
